Reference: patent US20150037277A1

How the values were obtained:
Test in all cases: ELISA, plate coated with OVA-peptide conjugate, adjuvant-only control egg antibody, dilution not stated
[1] = biological target: IL-10 Peptide #1 (SEQ ID NO: 1) conjugated to hen ovalbumin (Chicken, quail, turkey; hen) (UniProt P01012)
[2] = biological target: IL-10 Peptide #3 (SEQ ID NO: 4) conjugated to hen ovalbumin (Chicken, quail, turkey; hen) (UniProt P01012)
[3] = biological target: IL-10 Peptide #4 (SEQ ID NO: 5) conjugated to hen ovalbumin (Chicken, quail, turkey; hen) (UniProt P01012)

In the case of “adjuvant only injected control egg antibody”, the optical density [1] was 0.562 OD at 450 nm, the optical density [2] was 0.499 OD at 450 nm and the optical density [3] was 0.6 OD at 450 nm.
